Assay results from the supplement of paper PMC9732359.
± gives the uncertainty stated by the source.

Experiment: protein stability index of a GFP-peptide fusion (yeast GPS) (PSI 1-4); higher = more stable; sorted into four equal gates, so the index is relative within each strain
Method in brief: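 Plasmids isolated from each sorting gate were PCR-amplified and Illumina-sequenced, and barcodes assigned the reads to strains. The gates, four of equal size, were set by GFP/Cherry fluorescence ratio on mid-log cultures in leucine-free medium. These cultures were yeast carrying a pooled library of tiled 17-residue yeast protein peptides fused downstream of GFP on a plasmid that also expresses Cherry. The protein stability index is the sum of every gate's read frequency times its gate number.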

## SKFNNADDVFTGTGLQD [RPC31]
doa10∆
  protein stability index: 3.35 ± 0.1
pdr5∆
  protein stability index: 3.38 ± 0.091
san1∆
  protein stability index: 3.12 ± 0.056
ubr1∆
  protein stability index: 3.17 ± 0.066

## LDIGLQRTTTGARVFGA [RPL5]
doa10∆
  protein stability index: 1.35 ± 0.073
pdr5∆
  protein stability index: 1.29 ± 0.096
san1∆
  protein stability index: 1.31 ± 0.13
ubr1∆
  protein stability index: 1.12 ± 0.071

## ILEVGALASIQTFNFDS [RPN12]
doa10∆
  protein stability index: 2.31 ± 0.095
pdr5∆
  protein stability index: 2.65 ± 0.18
san1∆
  protein stability index: 2.96 ± 0.17
ubr1∆
  protein stability index: 2.86 ± 0.077

## SSLFQEKLLETNVSKQN [ECM29]
doa10∆
  protein stability index: 2.74 ± 0.11
pdr5∆
  protein stability index: 2.55 ± 0.1
san1∆
  protein stability index: 2.35 ± 0.065
ubr1∆
  protein stability index: 2.52 ± 0.071

## AAVVKTSSRQTVFLPMV [RPT5]
doa10∆
  protein stability index: 3.02 ± 0.051
pdr5∆
  protein stability index: 3.15 ± 0.056
san1∆
  protein stability index: 2.97 ± 0.051
ubr1∆
  protein stability index: 2.87 ± 0.061

## PSLRKLIESGIGTHHAG [BRR2]
doa10∆
  protein stability index: 3.16 ± 0.19
pdr5∆
  protein stability index: 3.38 ± 0.28
san1∆
  protein stability index: 3.11 ± 0.2
ubr1∆
  protein stability index: 3.64 ± 0.13

## IAHENEQKWLIYDKKDH [SRB8]
doa10∆
  protein stability index: 2.88 ± 0.13
pdr5∆
  protein stability index: 2.83 ± 0.093
san1∆
  protein stability index: 2.77 ± 0.17
ubr1∆
  protein stability index: 2.8 ± 0.071

## EEEKSVDASPNDVTRRT [CSL4]
doa10∆
  protein stability index: 3.25 ± 0.08
pdr5∆
  protein stability index: 3.33 ± 0.085
san1∆
  protein stability index: 3.27 ± 0.05
ubr1∆
  protein stability index: 3.44 ± 0.065

## SYELIKEECQIEDDGII [CSN9]
doa10∆
  protein stability index: 2.77 ± 0.11
pdr5∆
  protein stability index: 3.01 ± 0.088
san1∆
  protein stability index: 3.06 ± 0.069
ubr1∆
  protein stability index: 3.1 ± 0.054

## ILKDLIYRGVLNDENSD [SMC1]
doa10∆
  protein stability index: 1.81 ± 0.059
pdr5∆
  protein stability index: 2.18 ± 0.076
san1∆
  protein stability index: 1.92 ± 0.13
ubr1∆
  protein stability index: 2.21 ± 0.066

## SLQYIERQQDELENFLD [YJL041W/NSP1]
doa10∆
  protein stability index: 3.1 ± 0.1
pdr5∆
  protein stability index: 3.04 ± 0.14
san1∆
  protein stability index: 3.43 ± 0.096
ubr1∆
  protein stability index: 3.12 ± 0.054

## IADLDTEAEETSIHSTI [RRP43]
doa10∆
  protein stability index: 3.76 ± 0.18
pdr5∆
  protein stability index: 2.56 ± 0.17
san1∆
  protein stability index: 3.54 ± 0.11
ubr1∆
  protein stability index: 3.38 ± 0.15

## DDEPTTPAELVGKFLGY [FAS1]
doa10∆
  protein stability index: 3.51 ± 0.13
pdr5∆
  protein stability index: 3.34 ± 0.14
san1∆
  protein stability index: 3.16 ± 0.08
ubr1∆
  protein stability index: 3.2 ± 0.12

## RGRPPKARNGLDYVRTP [SNF2]
doa10∆
  protein stability index: 1.52 ± 0.096
pdr5∆
  protein stability index: 1.67 ± 0.087
san1∆
  protein stability index: 2.41 ± 0.13
ubr1∆
  protein stability index: 3.09 ± 0.074

## VLTNIEVYRTSLNTKKN [SMC3]
doa10∆
  protein stability index: 2.61 ± 0.17
pdr5∆
  protein stability index: 3.08 ± 0.19
ubr1∆
  protein stability index: 2.85 ± 0.12

## CSDFVKILNLEKPLILA [NUT1]
doa10∆
  protein stability index: 2.01 ± 0.097
pdr5∆
  protein stability index: 1.39 ± 0.064
san1∆
  protein stability index: 1.34 ± 0.17
ubr1∆
  protein stability index: 1.08 ± 0.071

## SQEQGMGMDLYKTSKAA [FAS1]
doa10∆
  protein stability index: 3.05 ± 0.086
pdr5∆
  protein stability index: 3.15 ± 0.07
san1∆
  protein stability index: 2.72 ± 0.059
ubr1∆
  protein stability index: 3.3 ± 0.057

## TRYELYIKNILEAPVKS [YLR335W/NUP2]
doa10∆
  protein stability index: 1.67 ± 0.045
pdr5∆
  protein stability index: 2.1 ± 0.054
san1∆
  protein stability index: 1.66 ± 0.087
ubr1∆
  protein stability index: 1.56 ± 0.057

## KKEANLFPEQQTKEIKT [RPL6B]
doa10∆
  protein stability index: 2.62 ± 0.08
pdr5∆
  protein stability index: 3.25 ± 0.074
san1∆
  protein stability index: 2.56 ± 0.082
ubr1∆
  protein stability index: 3.23 ± 0.076

## ALVAGIERYPLKVTKKH [RPL27A]
doa10∆
  protein stability index: 2.17 ± 0.27
pdr5∆
  protein stability index: 2.51 ± 0.12
san1∆
  protein stability index: 1.87 ± 0.24

## GKIVGFDEFMNVVIDEA [SME1]
doa10∆
  protein stability index: 3.26 ± 0.063
pdr5∆
  protein stability index: 3.33 ± 0.064
san1∆
  protein stability index: 3.36 ± 0.056
ubr1∆
  protein stability index: 3.39 ± 0.05

## KTAIEGSYIDKKCPFTG [RPS11A]
doa10∆
  protein stability index: 3.12 ± 0.069
pdr5∆
  protein stability index: 3.37 ± 0.075
san1∆
  protein stability index: 3.08 ± 0.051
ubr1∆
  protein stability index: 3.27 ± 0.036

## SPLNTTTKILGDKILGN [YML103C/NUP188]
doa10∆
  protein stability index: 2.33 ± 0.055
pdr5∆
  protein stability index: 2.63 ± 0.049
san1∆
  protein stability index: 2.45 ± 0.059
ubr1∆
  protein stability index: 2.12 ± 0.028

## GPAAAKPMAFSNTTTHV [MTR3]
doa10∆
  protein stability index: 3.06 ± 0.08
pdr5∆
  protein stability index: 3.28 ± 0.052
san1∆
  protein stability index: 3.39 ± 0.05
ubr1∆
  protein stability index: 3.27 ± 0.036

## SNETIGEIQLLFQRQKL [IRR1]
doa10∆
  protein stability index: 2.61 ± 0.22
pdr5∆
  protein stability index: 2.8 ± 0.17
san1∆
  protein stability index: 3.14 ± 0.14

## TAVLSTTARAKARAKKT [RPN2]
doa10∆
  protein stability index: 3.31 ± 0.11
pdr5∆
  protein stability index: 3.17 ± 0.077
san1∆
  protein stability index: 3.15 ± 0.075
ubr1∆
  protein stability index: 3.19 ± 0.072

## KTVQSMTQRAIQSAESI [SWI3]
doa10∆
  protein stability index: 2.5 ± 0.11
pdr5∆
  protein stability index: 1.8 ± 0.079
san1∆
  protein stability index: 2.53 ± 0.13
ubr1∆
  protein stability index: 1.82 ± 0.12

## LKVRKGHIAKLMATEYQ [RPB2]
doa10∆
  protein stability index: 2.52 ± 0.14
pdr5∆
  protein stability index: 2.33 ± 0.13
san1∆
  protein stability index: 1.28 ± 0.19
ubr1∆
  protein stability index: 1.86 ± 0.057

## AVDHRRQNRNQEIFDAN [RPL13A]
doa10∆
  protein stability index: 3.15 ± 0.075
pdr5∆
  protein stability index: 3.21 ± 0.058
san1∆
  protein stability index: 3.23 ± 0.044
ubr1∆
  protein stability index: 3.34 ± 0.046

## QVLFQGLIYSFNEENGE [POP1]
doa10∆
  protein stability index: 3.1 ± 0.13
pdr5∆
  protein stability index: 3.24 ± 0.18
san1∆
  protein stability index: 2.77 ± 0.26
ubr1∆
  protein stability index: 3.02 ± 0.18

## FITRLAQGLLHLGKGTM [RPN1]
doa10∆
  protein stability index: 2.9 ± 0.086
pdr5∆
  protein stability index: 2.99 ± 0.091
san1∆
  protein stability index: 2.3 ± 0.14
ubr1∆
  protein stability index: 2.23 ± 0.074

## PSYTHVLISKLSCEKIT [RRI1]
doa10∆
  protein stability index: 2.18 ± 0.04
pdr5∆
  protein stability index: 1.99 ± 0.043
san1∆
  protein stability index: 2.12 ± 0.047
ubr1∆
  protein stability index: 1.98 ± 0.035

## GRNIGHPIIQDKEGNGV [RPB3]
doa10∆
  protein stability index: 3.52 ± 0.17
pdr5∆
  protein stability index: 3.24 ± 0.13
san1∆
  protein stability index: 3.04 ± 0.1
ubr1∆
  protein stability index: 3.15 ± 0.13

## KVGIWPYFDYIFNDILA [YJL039C/NUP192]
doa10∆
  protein stability index: 1.67 ± 0.11
pdr5∆
  protein stability index: 1.96 ± 0.071
san1∆
  protein stability index: 1.75 ± 0.17
ubr1∆
  protein stability index: 1.43 ± 0.061

## VPNYEVSEKAFLLTQSK [RPN7]
doa10∆
  protein stability index: 3.17 ± 0.18
pdr5∆
  protein stability index: 3.47 ± 0.24
ubr1∆
  protein stability index: 2.75 ± 0.14

## DSVFEQNEMIDAIAVTK [RPL3]
doa10∆
  protein stability index: 2.57 ± 0.095
pdr5∆
  protein stability index: 2.8 ± 0.12
san1∆
  protein stability index: 2.31 ± 0.1
ubr1∆
  protein stability index: 2.51 ± 0.042

## VEHLLRDVRDQAAGGLS [RPN8]
doa10∆
  protein stability index: 2.7 ± 0.13
pdr5∆
  protein stability index: 1.99 ± 0.17
san1∆
  protein stability index: 2.81 ± 0.17
ubr1∆
  protein stability index: 1.07 ± 0.12

## DDFTDAIQFVKENELLF [YCS4]
doa10∆
  protein stability index: 2.1 ± 0.082
pdr5∆
  protein stability index: 2.04 ± 0.061
san1∆
  protein stability index: 2.58 ± 0.16
ubr1∆
  protein stability index: 1.92 ± 0.07

## QNHNSKSTDNSAIRQVF [IRR1]
doa10∆
  protein stability index: 2.61 ± 0.039
pdr5∆
  protein stability index: 2.8 ± 0.037
san1∆
  protein stability index: 2.85 ± 0.042
ubr1∆
  protein stability index: 2.739 ± 0.027

## SYVNYRHMALLVDVMTT [RPO21]
doa10∆
  protein stability index: 1.23 ± 0.049
pdr5∆
  protein stability index: 1.25 ± 0.049
san1∆
  protein stability index: 1.2 ± 0.062
ubr1∆
  protein stability index: 1.18 ± 0.034

## HPWEQAKEVKVLYHTSG [PRP8]
doa10∆
  protein stability index: 2.81 ± 0.23
pdr5∆
  protein stability index: 2.78 ± 0.14
san1∆
  protein stability index: 3.03 ± 0.085
ubr1∆
  protein stability index: 2.9 ± 0.091

## VTNSPLFQTIEKLINNS [ECM29]
doa10∆
  protein stability index: 2.73 ± 0.054
pdr5∆
  protein stability index: 2.85 ± 0.058
san1∆
  protein stability index: 2.76 ± 0.085
ubr1∆
  protein stability index: 2.92 ± 0.066

## GSIPVDQVVVRGIDTLQ [RPB3]
doa10∆
  protein stability index: 2.14 ± 0.06
pdr5∆
  protein stability index: 2.02 ± 0.076
san1∆
  protein stability index: 1.89 ± 0.099
ubr1∆
  protein stability index: 2.5 ± 0.048

## SKNELKKAFTSYDRTLL [RPS16A]
doa10∆
  protein stability index: 2.76 ± 0.067
pdr5∆
  protein stability index: 3.14 ± 0.057
san1∆
  protein stability index: 3.12 ± 0.07
ubr1∆
  protein stability index: 2.91 ± 0.077

## QQRFQALQQQQQQQQNQ [SWI1]
doa10∆
  protein stability index: 2.05 ± 0.05
pdr5∆
  protein stability index: 2.07 ± 0.046
san1∆
  protein stability index: 2.25 ± 0.052
ubr1∆
  protein stability index: 2.04 ± 0.059

## DKLTSIQDTLRTGSQSP [MED7]
doa10∆
  protein stability index: 2.7 ± 0.042
pdr5∆
  protein stability index: 2.82 ± 0.045
san1∆
  protein stability index: 2.69 ± 0.032
ubr1∆
  protein stability index: 2.89 ± 0.033

## SFFIASQLQEQFNKILP [FAS1]
doa10∆
  protein stability index: 2.69 ± 0.15
pdr5∆
  protein stability index: 3.13 ± 0.15
san1∆
  protein stability index: 2.54 ± 0.081
ubr1∆
  protein stability index: 2.77 ± 0.07

## LRLDGHTKSDERSELLR [SNF2]
doa10∆
  protein stability index: 3.24 ± 0.081
pdr5∆
  protein stability index: 3.18 ± 0.084
san1∆
  protein stability index: 3.38 ± 0.079
ubr1∆
  protein stability index: 3.33 ± 0.078

## YEIRDIDQDIHGIVFQH [SSN2]
doa10∆
  protein stability index: 2.5 ± 0.049
pdr5∆
  protein stability index: 2.6 ± 0.056
san1∆
  protein stability index: 2.72 ± 0.051
ubr1∆
  protein stability index: 2.75 ± 0.033

## EGIIKPISKHSKQAIYT [RPS25A]
doa10∆
  protein stability index: 1.65 ± 0.065
pdr5∆
  protein stability index: 2.03 ± 0.057
san1∆
  protein stability index: 1.47 ± 0.095
ubr1∆
  protein stability index: 1.72 ± 0.056

## IIKQTVHPIPDVAFADG [YMR129W/POM152]
doa10∆
  protein stability index: 2.8 ± 0.053
pdr5∆
  protein stability index: 2.89 ± 0.062
san1∆
  protein stability index: 2.77 ± 0.046
ubr1∆
  protein stability index: 2.82 ± 0.043
